In patent US20260056186A1 (JIANGSU HENGRUI PHARMACEUTICALS, published 2026):
Like-named read-outs stand apart in the source and are kept apart here.

Key:
[1] = target: T1, APRIL (Acro Biosystems, Cat: APL-H52D1) (UniProt O75888 115-250, limits assumed); assay: ELISA, APRIL coated at 1 ug/mL, anti-human Fc-HRP, OD450
T1 construct: also called ARPIL
T1 sequence (looked up): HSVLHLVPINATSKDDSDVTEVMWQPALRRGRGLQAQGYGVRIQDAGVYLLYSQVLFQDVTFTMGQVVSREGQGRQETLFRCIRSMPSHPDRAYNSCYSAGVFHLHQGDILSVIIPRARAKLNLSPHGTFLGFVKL
Procedure: (§1) The capabilities of TACI-BCMA fusion proteins (B575701, B575702, B575703, and B575704) to bind to BAFF and APRIL were assessed by ELISA as follows: BAFF (PeproTech, Cat: 310-13) or ARPIL (Acro Biosystems, Cat: APL-H52D1) was diluted to 1 μg/mL with PBS, and a 96-well plate (Costar, Cat: 3590) was coated with the dilution overnight at 4° C. The plate was washed with PBST and blocked with Blocking Buffer (PBST containing 1% BSA) at 37° C. for 1 h. The plate was tapped. The test antibodies were diluted with Blocking Buffer. Incubation was performed at 37° C. for 1.5 h. The plate was washed with PBST. An HRP-mouse anti-human Fc antibody (GenScript, Cat: A01854-200) was diluted with Blocking Buffer. Incubation was performed at 37° C. for 40 min. The plate was washed with PBST. 100 μL of TMB substrate solution (Biopanda, Cat: TMB-S-003) was added, and color development was performed at 37° C. for 3 min. 100 μL of ELISA stop solution (Solarbio, Cat: C1058) was added. OD450 was measured.
The capabilities of the 4 fusion proteins to bind to APRIL were all stronger than that of telitacicept, and their EC₅₀ values decreased to ¼ to ⅓ of that of telitacicept.

[2] = target: T2, BAFF (PeproTech, Cat: 310-13) (UniProt Q9Y275 134-285); assay: ELISA, BAFF coated at 1 ug/mL, anti-human Fc-HRP, OD450
Procedure: as §1, with “B613301, B613302, and B613303, which are” for “TACI-BCMA”, “of anifrolumab” for “(B575701, B575702, B575703,”, “TACI-BCMA,” for “B575704)”, “follows: [0548]” for “follows:”

[3] = target: T3, BAFF (Sino biological, 10056-HNCH) (UniProt Q9Y275 134-285, biotinylated in the blocking ELISA (site not stated)); assay: competition ELISA: fusion protein pre-mixed with biotinylated BAFF, added to coated BAFF-R
T3 construct: also called BLyS
Procedure: The above TACI-Fc fusion proteins' function of blocking the binding of BAFF to BAFF-R was further assessed as follows: The receptor protein was diluted with a pH 7.4 PBS (BasalMedia, B320) buffer to 2 μg/mL, and the resulting dilution was added to a 96-well microplate (Corning, 3590) at 100 μL/well. The plate was incubated overnight at 4° C. After the liquid was discarded, 1% Casein blocking solution (Thermo, 37528) was added at 200 μL/well for blocking, and the plate was incubated at 37° C. for 2 h. After the blocking, the blocking solution was discarded, and the plate was washed 3 times with a PBST buffer (pH 7.4 PBS containing 0.1% tween-20) and set aside for later use. A biotinylated ligand protein at a fixed concentration was mixed with a serially diluted antibody or fusion protein, and the mixture was pre-incubated at 37° C. for 30 min and then added to the blocked microplate. The plate was incubated at 37° C. for 1.5 h. After the incubation, the plate was washed 3 times with PBST, and streptavidin-HRP (Invitrogen, 434323, diluted in a 1:4000 ratio) was added at 100 μL/well. The plate was incubated at 37° C. for 1 h. The supernatant was removed. […] The absorbance at 450 nm was measured using a microplate reader. Curves for the inhibition of the binding of the ligand to the receptor were fitted using software, and IC₅₀ values were calculated. […]

[4] = target: T2, BAFF (PeproTech, Cat: 310-13); assay: ELISA, plate coated with BAFF 1 ug/mL, HRP anti-human Fc, OD450
Procedure: as §1, with “BAFF” for “The capabilities of TACI-BCMA fusion proteins (B575701, B575702, B575703, and B575704) to bind to BAFF and APRIL were assessed by ELISA as follows: BAFF”, “310-13)” for “310-13) or ARPIL (Acro Biosystems, Cat: APL-H52D1)”, “plate” for “plate (Costar, Cat: 3590)”

[5] = target: T1, APRIL (Acro Biosystems, Cat: APL-H52D1); assay: ELISA, APRIL coated at 1 ug/mL, anti-human Fc-HRP, OD450; remark: listed apart in the source
Procedure: as §1, with “B613301, B613302, and B613303, which are” for “TACI-BCMA”, “of anifrolumab” for “(B575701, B575702, B575703,”, “TACI-BCMA,” for “B575704)”, “follows: [0548]” for “follows:”

B1: Telitacicept (RCT-18) (Fc fusion)
chain: SRVDQEERFPQGLWTGVAMRSCPEEQYWDPLLGTCMSCKTICNHQSQRTCAAFCRSLSCRKEQGKFYDHLLRDCISCASICGQHPKQCAYFCENKLRSPVNLPPELDKTHTCPPCPAPEAEGAPSVFLFPPKPKDTLMISRTPEVTCVVVDVSHEDPEVKFNWYVDGVEVHNAKTKPREEQYNSTYRVVSVLTVLHQDWLNGKEYKCKVSNKALPSSIEKTISKAKGQPREPQVYTLPPSRDELTKNQVSLTCLVKGFYPSDIAVEWESNGQPENNYKTTPPVLDSDGSFFLYSKLTVDKSRWQQGNVFSCSVMHEALHNHYTQKSLSLSPGK
notes: Positive control TACI-Fc; also called RC18
EC50 [1]: 711 pM
Emax [1]: 2.62
EC50 [2]: 801 pM
IC50 [3]: 27500 pM
EC50 (read off the curve) [4]: ~400 pM
EC50 [5]: 1260 pM
Emax [5]: 2.5
